# Results from patent US20050064507.
# Columns and labels:
# [1] = test system: T1, peptide FVHQASFKFGQGD (SEQ ID NO:41)
# T1 sequence: XXPPGFVHQASFKFGQGD
# [2] = test system: T2, peptide VDNILKKSNKKLEEL (SEQ ID NO:61)
# T2 sequence: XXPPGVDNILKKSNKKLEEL
# [3] = test system: T3, peptide KKKKRASFKRKSSKKG (SEQ ID NO:2)
# T3 sequence: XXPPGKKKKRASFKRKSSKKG
# [4] = test system: T4, CREB peptide VTDSQKRREILSRRPSYPKI (SEQ ID NO:141)
# T4 sequence: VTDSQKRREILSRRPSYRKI
# [5] = test system: T5, CREB1 peptide EILSRRPSYRKILND (SEQ ID NO:106)
# T5 sequence: EILSRRPSYRKILND
# [6] = test system: T6, peptide EARLGAASLKFGARD (SEQ ID NO:56)
# T6 sequence: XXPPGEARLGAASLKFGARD
# [7] = test system: T7, phospholemman peptide EEGTFRSSIRRLSTRRR (SEQ ID NO:116)
# T7 sequence: EEGTFRSSIRRLSTRRR
# [8] = test system: T8, p164-RhoGEF peptide PRLIRRGSKKRPAR (SEQ ID NO:124)
# T8 sequence: PRLIRRGSKKRPAR
# [9] = test system: T9, SDPR peptide EKIKRSSLKKVDSLKK (SEQ ID NO:104)
# T9 sequence: EKIKRSSLKKVDSLKK
# [10] = test system: T10, peptide EEAEHKATKARLADK (SEQ ID NO:75)
# T10 sequence: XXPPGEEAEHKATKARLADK
# [11] = test system: T11, M1 muscarinic receptor peptide RWDKRRWRKIPKRPGSVHRT (SEQ ID NO:155)
# T11 sequence: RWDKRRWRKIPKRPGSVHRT
# [12] = test system: T12, peptide NMEAKKLSKDRMKKY (SEQ ID NO:40)
# T12 sequence: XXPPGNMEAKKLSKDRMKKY
# [13] = test system: T13, peptide QKRHARVTVKYDRRE (SEQ ID NO:23)
# T13 sequence: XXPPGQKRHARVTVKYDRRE
# [14] = test system: T14, peptide RKNDRKKRYTVVGNP (SEQ ID NO:29)
# T14 sequence: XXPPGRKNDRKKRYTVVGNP
# [15] = test system: T15, MARCKS peptide PSPSNETPKKKKKRFSFKKS (SEQ ID NO:157)
# T15 sequence: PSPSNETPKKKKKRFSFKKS
# [16] = test system: T16, peptide KFARKSTRRSIRLPE (SEQ ID NO:4)
# T16 sequence: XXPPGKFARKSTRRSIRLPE
# [17] = test system: T17, dag kinase iota peptide NRKKKRTSFKRKA (SEQ ID NO:115)
# T17 sequence: NRKKKRTSFKRKA
# [18] = test system: T18, peptide AWVTVHEKKSSRKSEYL (SEQ ID NO:43)
# T18 sequence: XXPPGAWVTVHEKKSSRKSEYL
# [19] = test system: T19, peptide RGFLRSASLGRRASFHLE (SEQ ID NO:15)
# T19 sequence: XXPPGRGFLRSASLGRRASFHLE
# [20] = test system: T20, peptide LRRKHLGTLNFGGIR (SEQ ID NO:60)
# T20 sequence: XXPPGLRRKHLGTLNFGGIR
# [21] = test system: T21, peptide EYLERRASRRRAV (SEQ ID NO:14)
# T21 sequence: XXPPGEYLERRASRRRAV
# [22] = test system: T22, peptide HERKGSDKRGDNQ (SEQ ID NO:70)
# T22 sequence: XXPPGHERKGSDKRGDNQ
# [23] = test system: T23, peptide ALRRPSLRREADD (SEQ ID NO:26)
# T23 sequence: XXPPGALRRPSLRREADD
# [24] = test system: T24, SMARCA5 peptide MAQIERGEARIQRRISIKKA (SEQ ID NO:166)
# T24 sequence: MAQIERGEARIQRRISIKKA
# [25] = test system: T25, peptide NRKKKRTSFKRKA (SEQ ID NO:3)
# T25 sequence: XXPPGNRKKKRTSFKRKA
# [26] = test system: T26, peptide IKVTHKATGKVMVMK (SEQ ID NO:65)
# T26 sequence: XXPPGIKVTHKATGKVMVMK
# [27] = test system: T27, NR4A3 peptide KEVVRTDSLKGRRGR (SEQ ID NO:109)
# T27 sequence: KEVVRTDSLKGRRGR
# [28] = test system: T28, ARHGAP6 peptide SAQITIPKDGQKRKKSLRKK (SEQ ID NO:156)
# T28 sequence: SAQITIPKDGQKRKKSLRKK
# [29] = test system: T29, ankyrin R peptide DLIEGRKGAQIVKRASLKRG (SEQ ID NO:152)
# T29 sequence: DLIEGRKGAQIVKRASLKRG
# [30] = test system: T30, MARCKS peptide KKKKKRFSFKKSFKL (SEQ ID NO:80)
# T30 sequence: KKKKKRFSFKKSFKL
# [31] = test system: T31, PARIS1 peptide RELEQLKAEYLERRASRRRA (SEQ ID NO:148)
# T31 sequence: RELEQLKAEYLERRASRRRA
# [32] = test system: T32, AKAP12 peptide AGWRKKTSFRKPKED (SEQ ID NO:99)
# T32 sequence: AGWRKKTSFRKPKED
# [33] = test system: T33, pkc-zeta peptide GLPAPGEDKSIYRRGSRRWR (SEQ ID NO:167)
# T33 sequence: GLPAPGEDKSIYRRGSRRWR
# [34] = test system: T34, peptide DGQKRKKSLRKKLD (SEQ ID NO:16)
# T34 sequence: XXPPGDGQKRKKSLRKKLD
# [35] = test system: T35, NIK peptide WKGKRRSKARKKRK (SEQ ID NO:131)
# T35 sequence: WKGKRRSKARKKRK
# [36] = test system: T36, p164-RhoGEF peptide PRLIRRGSKKRPAR (SEQ ID NO:82)
# T36 sequence: PRLIRRGSKKRPAR
# [37] = test system: T37, PARIS1 peptide EYLERRASRRRAV (SEQ ID NO:138)
# T37 sequence: EYLERRASRRRAV
# [38] = test system: T38, peptide AYIERMNSIHRDLRA (SEQ ID NO:37)
# T38 sequence: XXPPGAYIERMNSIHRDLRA
# [39] = test system: T39, splicing factor, arginine/serine-rich 4 peptide RSRSRSRSKSKDKRKSRKRS (SEQ ID NO:134)
# T39 sequence: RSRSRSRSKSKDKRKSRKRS
# [40] = test system: T40, peptide QQKIRKYTMRRLLQE (SEQ ID NO:33)
# T40 sequence: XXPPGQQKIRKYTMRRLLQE
substance,measurement,setting,value
PKC-delta,in vitro phosphorylation (% of best substrate),[1],3
same,in vitro phosphorylation (% of best substrate),[2],1
same,in vitro phosphorylation (% of best substrate),[3],76
same,"in vitro phosphorylation, 1 uM peptide (% of best substrate)",[4],43
same,"in vitro phosphorylation, 10 uM peptide (% of best substrate)",[4],21
same,in vitro phosphorylation (% of best substrate),[5],9
same,in vitro phosphorylation (% of best substrate),[6],2
same,"in vitro phosphorylation, 1 uM peptide (% of best substrate)",[7],75
same,"in vitro phosphorylation, 10 uM peptide (% of best substrate)",[7],41
same,"in vitro phosphorylation, 1 uM peptide (% of best substrate)",[8],69
same,"in vitro phosphorylation, 10 uM peptide (% of best substrate)",[8],43
same,in vitro phosphorylation (% of best substrate),[9],10
same,in vitro phosphorylation (% of best substrate),[10],0
same,"in vitro phosphorylation, 1 uM peptide (% of best substrate)",[11],30
same,"in vitro phosphorylation, 10 uM peptide (% of best substrate)",[11],23
same,in vitro phosphorylation (% of best substrate),[12],3
same,in vitro phosphorylation (% of best substrate),[13],10
same,in vitro phosphorylation (% of best substrate),[14],8
same,"in vitro phosphorylation, 1 uM peptide (% of best substrate)",[15],27
same,"in vitro phosphorylation, 10 uM peptide (% of best substrate)",[15],35
same,in vitro phosphorylation (% of best substrate),[16],52
same,"in vitro phosphorylation, 1 uM peptide (% of best substrate)",[17],94
same,"in vitro phosphorylation, 10 uM peptide (% of best substrate)",[17],99
same,in vitro phosphorylation (% of best substrate),[18],3
same,in vitro phosphorylation (% of best substrate),[19],18
same,in vitro phosphorylation (% of best substrate),[20],1
same,in vitro phosphorylation (% of best substrate),[21],20
same,in vitro phosphorylation (% of best substrate),[22],1
same,in vitro phosphorylation (% of best substrate),[23],9
same,"in vitro phosphorylation, 1 uM peptide (% of best substrate)",[24],13
same,"in vitro phosphorylation, 10 uM peptide (% of best substrate)",[24],29
same,in vitro phosphorylation (% of best substrate),[25],66
same,in vitro phosphorylation (% of best substrate),[26],1
same,in vitro phosphorylation (% of best substrate),[27],7
same,"in vitro phosphorylation, 1 uM peptide (% of best substrate)",[28],29
same,"in vitro phosphorylation, 10 uM peptide (% of best substrate)",[28],31
same,"in vitro phosphorylation, 1 uM peptide (% of best substrate)",[29],35
same,"in vitro phosphorylation, 10 uM peptide (% of best substrate)",[29],18
same,in vitro phosphorylation (% of best substrate),[30],24
same,"in vitro phosphorylation, 1 uM peptide (% of best substrate)",[31],27
same,"in vitro phosphorylation, 10 uM peptide (% of best substrate)",[31],14
same,in vitro phosphorylation (% of best substrate),[32],17
same,"in vitro phosphorylation, 1 uM peptide (% of best substrate)",[33],13
same,"in vitro phosphorylation, 10 uM peptide (% of best substrate)",[33],24
same,in vitro phosphorylation (% of best substrate),[34],17
same,"in vitro phosphorylation, 1 uM peptide (% of best substrate)",[35],38
same,"in vitro phosphorylation, 10 uM peptide (% of best substrate)",[35],29
same,in vitro phosphorylation (% of best substrate),[36],40
same,"in vitro phosphorylation, 1 uM peptide (% of best substrate)",[37],49
same,"in vitro phosphorylation, 10 uM peptide (% of best substrate)",[37],28
same,in vitro phosphorylation (% of best substrate),[38],3
same,"in vitro phosphorylation, 1 uM peptide (% of best substrate)",[39],44
same,"in vitro phosphorylation, 10 uM peptide (% of best substrate)",[39],16
same,in vitro phosphorylation (% of best substrate),[40],> 5
